Data: patent US20230357343A1 (ASHER BIOTHERAPEUTICS, published 2023)
Where a chain is given by its changes, count along the chain named. Names and notes keep the numbering of the source. One block for each binder: values may come before it.

How the values were obtained:
[1] = biological target: T1, Human IL-21R (Biolegend, Catalog No. 773104) (human, UniProt Q9HBE5 20-232, limits assumed); assay: SPR 37 C
T1 construct: Bought protein; also called IL-21 receptor

[2] = biological target: T1, Human IL-21R (Biolegend, Catalog No. …); assay: SPR 37 C, Fc-captured fusion;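 also: biacore SPR with anti-human IgG Fc surface and blank flow cell as reference, 10 min dissociation, double-referenced, 1:1 Langmuir fit with mass transport, triplicate runs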
[3] = biological target: T2, recombinant human IL-21R, extracellular domain fused to 8xHistidine tag (generated in house) (human, UniProt Q9HBE5 20-232); assay: SPR 37 C, Fc-captured fusion
[4] = biological target: T2, recombinant human IL-21R, extracellular …; assay: SPR 37 C
[5] = biological target: human CD8 on CD8+ T cells (human, UniProt P01732 22-235; P10966 22-210); assay: cell-based or functional assay
mouse CD8 = biological target: T3, mouse CD8 (mouse, UniProt P10300 22-175, limits assumed); assay: stated; no assay described
T3 construct: also called mouse CD8b
T3 sequence (looked up): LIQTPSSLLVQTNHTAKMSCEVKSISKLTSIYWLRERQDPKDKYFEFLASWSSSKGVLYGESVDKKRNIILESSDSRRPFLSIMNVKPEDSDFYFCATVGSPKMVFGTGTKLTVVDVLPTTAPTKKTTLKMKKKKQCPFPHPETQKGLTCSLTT

Chain of human CD8 on CD8+ T cells (P01732 22-235, chain 1 of 2): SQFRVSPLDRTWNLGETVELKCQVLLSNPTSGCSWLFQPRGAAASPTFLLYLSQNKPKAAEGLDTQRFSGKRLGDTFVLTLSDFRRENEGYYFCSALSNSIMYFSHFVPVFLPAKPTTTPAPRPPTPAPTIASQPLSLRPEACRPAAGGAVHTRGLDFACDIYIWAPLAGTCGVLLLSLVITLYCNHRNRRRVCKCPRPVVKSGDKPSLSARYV
Chain of human CD8 on CD8+ T cells (P10966 22-210, chain 2 of 2): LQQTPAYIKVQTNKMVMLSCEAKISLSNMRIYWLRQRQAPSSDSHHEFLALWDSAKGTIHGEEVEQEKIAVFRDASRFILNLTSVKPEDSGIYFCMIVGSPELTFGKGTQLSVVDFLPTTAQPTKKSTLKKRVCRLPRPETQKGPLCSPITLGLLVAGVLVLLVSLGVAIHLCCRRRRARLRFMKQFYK
T2 sequence (Q9HBE5 other isoform, or with tags, fused parts or gaps limits assumed): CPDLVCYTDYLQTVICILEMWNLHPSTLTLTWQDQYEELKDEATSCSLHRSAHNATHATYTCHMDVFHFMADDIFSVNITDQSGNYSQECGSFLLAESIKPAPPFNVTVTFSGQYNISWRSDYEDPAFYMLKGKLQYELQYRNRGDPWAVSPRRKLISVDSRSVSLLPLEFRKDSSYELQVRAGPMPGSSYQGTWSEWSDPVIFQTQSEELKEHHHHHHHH
T1 sequence (Q9HBE5 20-232 limits assumed): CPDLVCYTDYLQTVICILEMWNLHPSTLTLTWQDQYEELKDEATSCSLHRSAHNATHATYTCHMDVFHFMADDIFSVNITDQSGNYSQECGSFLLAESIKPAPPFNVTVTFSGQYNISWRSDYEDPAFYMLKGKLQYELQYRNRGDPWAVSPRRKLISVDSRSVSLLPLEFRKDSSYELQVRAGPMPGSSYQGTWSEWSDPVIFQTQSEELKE

B1: xhCD8-hIL21 v2 (other)
chain: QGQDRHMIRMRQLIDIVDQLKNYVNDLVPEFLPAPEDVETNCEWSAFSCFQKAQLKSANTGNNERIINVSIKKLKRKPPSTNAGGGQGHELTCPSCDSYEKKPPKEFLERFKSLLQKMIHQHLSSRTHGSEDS
VH: QVHLQQSGPELVKPGASVKMSCKTSGYTFTKYTMHWVKQGHEESLEWIGHFNPNNDETKYNQKFTGKATLTVDKSSTTAYMELRSLTSDDSALYYCARDGLGLRLFADWGQGTLITVSA
VL: DIQMTQSPASLSASVGETVTITCGASENIYGALNWYQRKQGKSPQLLIFGATNLADGVSSRFSGSGSDRQYSLKISSLHPDDVATYYCQNILDTPWTFGGGTKLEIK
notes: hIgG1/kappa; IL-21 part on one heavy-chain C-terminus via (G4S)3 linker; also called exemplary IL-21 polypeptide 2
fold difference in IL-21R affinity against wild type IL-21 [1]: ≤ 2 fold
Kd [2]: 0.122 nM
koff [2]: 0.0011 s⁻¹
kon [2]: 8.9e+06 M⁻¹ s⁻¹

B2: xhCD8-hIL21 v1 (other)
chain: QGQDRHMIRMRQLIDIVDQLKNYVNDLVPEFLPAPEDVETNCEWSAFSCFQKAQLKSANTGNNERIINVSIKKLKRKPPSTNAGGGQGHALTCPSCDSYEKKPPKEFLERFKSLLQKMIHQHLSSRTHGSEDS
VH: B1 VH
VL: B1 VL
notes: hIgG1/kappa; also called exemplary IL-21 polypeptide 1
fold difference in IL-21R affinity against wild type IL-21 [1]: ≤ 2 fold
Kd [2]: 0.117 nM
koff [2]: 0.00097 s⁻¹
kon [2]: 8.3e+06 M⁻¹ s⁻¹

B3: xhCD8-hIL21 v6 (other)
chain: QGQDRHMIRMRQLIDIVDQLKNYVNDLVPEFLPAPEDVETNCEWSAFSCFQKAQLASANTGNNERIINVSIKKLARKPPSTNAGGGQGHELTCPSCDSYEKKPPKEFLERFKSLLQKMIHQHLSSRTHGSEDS
VH: B1 VH
VL: B1 VL
notes: hIgG1/kappa; IL-21 part on one heavy-chain C-terminus via (G4S)3 linker; also called exemplary IL-21 polypeptide 6
fold difference in IL-21R affinity against wild type IL-21 [1]: ~3 fold
Kd [2]: 0.478 nM
koff [2]: 0.0025 s⁻¹
kon [2]: 5.2e+06 M⁻¹ s⁻¹

B4: xhCD8.1-hIL21 v2.7 (other)
chain: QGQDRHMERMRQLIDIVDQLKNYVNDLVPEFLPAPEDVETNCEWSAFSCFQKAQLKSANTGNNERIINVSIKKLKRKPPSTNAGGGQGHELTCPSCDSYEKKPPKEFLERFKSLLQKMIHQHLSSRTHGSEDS
VH: QVQLVQSGAEVKKPGSSVKVSCKASGGTFSSYAISWVRQAPGQGLEWMGGIIPGYATANYAQKFQGRVTITADESTSTAYMELSSLRSEDTAVYYCARDAAGIRLFADWGQGTLVTVSS
VL: DIQMTQSPSSLSASVGDRVTITCRASQSIYGALNWYQQKPGKAPKLLIYGASNLQSGVPSRFSGSGSGTDFTLTISSLQPEDFATYYCQSTYTAPWTFGGGTKVEIK
notes: hIgG1/kappa; IL-21 part on one heavy-chain C-terminus via (G4S)3 linker
Kd [3]: 156 nM

B5: xhCD8.1-hIL21 v29 (other)
chain: QGQDRHMIRMRQLIDIVDQLKNYVNDLVPEFLPAPEDVETNCEWSAFSCFQKAQLKSANTGNNERIINVSIKKLKRKPPGGGGEGGGGGEGGCPSCDSYEKKPPKEFLERFKSLLQKMIHQHLSSRTHGSEDS
VH: B4 VH
VL: B4 VL
notes: as for B4
fold difference in IL-21R affinity against wild type IL-21 [1]: ≤ 2 fold
Kd [2]: 0.094 nM
koff [2]: 0.00119 s⁻¹
kon [2]: 1.27e+07 M⁻¹ s⁻¹

B7: xhCD8.1-hIL21 v2.42 (other)
chain: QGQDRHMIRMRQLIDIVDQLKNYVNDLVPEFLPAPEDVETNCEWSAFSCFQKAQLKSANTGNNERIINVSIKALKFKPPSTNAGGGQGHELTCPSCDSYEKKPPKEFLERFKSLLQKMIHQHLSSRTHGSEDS
VH: B4 VH
VL: B4 VL
notes: as for B4
binding result [4]: no binding

B8: xhCD8.1-hIL21 v2.28 (other)
chain: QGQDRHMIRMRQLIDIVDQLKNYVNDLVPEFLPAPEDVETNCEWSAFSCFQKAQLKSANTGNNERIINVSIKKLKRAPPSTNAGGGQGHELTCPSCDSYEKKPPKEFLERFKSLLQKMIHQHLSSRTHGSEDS
VH: B4 VH
VL: B4 VL
notes: as for B4
Kd [3]: 0.693 nM

B9: xhCD8.1-hIL21 v2.20 (other)
chain: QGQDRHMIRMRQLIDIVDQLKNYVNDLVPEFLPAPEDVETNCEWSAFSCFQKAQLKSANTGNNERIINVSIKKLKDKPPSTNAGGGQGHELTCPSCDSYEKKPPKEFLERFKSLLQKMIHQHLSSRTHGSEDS
VH: B4 VH
VL: B4 VL
notes: as for B4
binding result [4]: no binding

B11: xhCD8.1-hIL21 v2.43 (other)
chain: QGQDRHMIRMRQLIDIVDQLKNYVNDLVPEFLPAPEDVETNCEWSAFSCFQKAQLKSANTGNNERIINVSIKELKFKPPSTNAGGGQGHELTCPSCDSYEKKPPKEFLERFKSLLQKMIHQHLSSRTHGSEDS
VH: B4 VH
VL: B4 VL
notes: as for B4
binding result [4]: no binding

B13: xhCD8.1-hIL21 v2.32 (other)
chain: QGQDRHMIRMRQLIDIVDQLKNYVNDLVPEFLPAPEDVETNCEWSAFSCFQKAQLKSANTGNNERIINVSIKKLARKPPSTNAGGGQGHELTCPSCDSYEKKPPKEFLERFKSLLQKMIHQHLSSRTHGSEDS
VH: B4 VH
VL: B4 VL
notes: as for B4
Kd [3]: 0.236 nM

B14: xhCD8.1-hIL21 v2.30 (other)
chain: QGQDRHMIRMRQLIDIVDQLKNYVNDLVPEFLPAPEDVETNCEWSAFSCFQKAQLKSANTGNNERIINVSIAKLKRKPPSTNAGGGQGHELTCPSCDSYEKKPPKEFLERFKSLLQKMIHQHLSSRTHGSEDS
VH: B4 VH
VL: B4 VL
notes: as for B4
Kd [3]: 0.419 nM

B15: xhCD8.1-hIL21 v2.36 (other)
chain: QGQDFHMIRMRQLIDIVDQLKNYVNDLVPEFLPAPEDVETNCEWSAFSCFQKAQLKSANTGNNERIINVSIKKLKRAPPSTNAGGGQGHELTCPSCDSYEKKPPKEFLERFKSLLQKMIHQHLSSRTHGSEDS
VH: B4 VH
VL: B4 VL
notes: as for B4
Kd [3]: 125 nM

B16: xhCD8.1-hIL21 v2.29 (other)
chain: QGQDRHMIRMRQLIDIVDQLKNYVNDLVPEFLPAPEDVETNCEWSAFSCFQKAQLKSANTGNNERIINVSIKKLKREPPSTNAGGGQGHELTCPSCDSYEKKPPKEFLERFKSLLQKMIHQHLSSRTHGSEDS
VH: B4 VH
VL: B4 VL
notes: as for B4
Kd [3]: 2.8 nM

B20: xhCD8.1-hIL21 v2.45 (other)
chain: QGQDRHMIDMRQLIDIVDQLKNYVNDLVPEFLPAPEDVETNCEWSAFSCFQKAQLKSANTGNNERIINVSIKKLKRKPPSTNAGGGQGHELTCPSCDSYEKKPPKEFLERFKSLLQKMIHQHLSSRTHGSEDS
VH: B4 VH
VL: B4 VL
notes: as for B4
binding result [4]: no binding

B23: xhCD8.1-hIL21 v2.34 (other)
chain: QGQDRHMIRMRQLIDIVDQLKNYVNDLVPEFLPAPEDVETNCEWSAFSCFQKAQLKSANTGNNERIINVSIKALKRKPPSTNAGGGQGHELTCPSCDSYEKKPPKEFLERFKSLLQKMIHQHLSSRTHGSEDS
VH: B4 VH
VL: B4 VL
notes: as for B4
Kd [3]: 2 nM

B25: xhCD8.1-hIL21 v2.46 (other)
chain: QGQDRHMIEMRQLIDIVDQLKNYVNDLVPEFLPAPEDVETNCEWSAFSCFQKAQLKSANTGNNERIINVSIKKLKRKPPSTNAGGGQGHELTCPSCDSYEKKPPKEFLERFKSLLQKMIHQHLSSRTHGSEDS
VH: B4 VH
VL: B4 VL
notes: as for B4
binding result [4]: no binding

B29: xhCD8.1-hIL21 v2.31 (other)
chain: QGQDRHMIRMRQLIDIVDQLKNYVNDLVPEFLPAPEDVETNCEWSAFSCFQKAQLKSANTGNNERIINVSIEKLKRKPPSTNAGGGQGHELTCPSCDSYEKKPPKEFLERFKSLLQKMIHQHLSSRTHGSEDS
VH: B4 VH
VL: B4 VL
notes: as for B4
Kd [3]: 3.4 nM

B30: xhCD8.1-hIL21 v2.9 (other)
chain: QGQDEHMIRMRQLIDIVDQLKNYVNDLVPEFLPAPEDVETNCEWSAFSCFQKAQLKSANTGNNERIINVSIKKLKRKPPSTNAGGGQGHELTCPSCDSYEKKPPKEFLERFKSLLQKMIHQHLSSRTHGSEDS
VH: B4 VH
VL: B4 VL
notes: as for B4
Kd [3]: 420 nM

B32: xhCD8.1-hIL21 v2.33 (other)
chain: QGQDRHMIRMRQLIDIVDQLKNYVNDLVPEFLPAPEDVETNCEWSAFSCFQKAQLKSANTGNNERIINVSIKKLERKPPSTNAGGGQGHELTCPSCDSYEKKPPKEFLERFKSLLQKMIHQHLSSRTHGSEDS
VH: B4 VH
VL: B4 VL
notes: as for B4
Kd [3]: 1.3 nM

B34: xhCD8v11 (antibody, V domains shown)
VH: EVQLVESGGGLVQPGGSLRLSCAASGFTFSSYAMSWVRQAPGKGLEWVSDITYAGGSTAYADSVKGRFTISRDNAKNSLYLQMNSLRAEDTAVYYCARSNAYAWDDALDIWGQGTLVTVSS
VL: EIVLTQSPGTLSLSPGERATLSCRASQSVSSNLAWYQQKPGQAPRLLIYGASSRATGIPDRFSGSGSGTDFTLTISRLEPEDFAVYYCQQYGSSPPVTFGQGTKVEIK
notes: used as targeting arm of fusions
binding result (mouse CD8): no binding

Second part, the binder after the results:

fold difference in IL-21R affinity against wild type IL-21 [1]: ≤ 2 fold
Kd [2]: 0.106 nM
koff [2]: 0.00139 s⁻¹
kon [2]: 1.31e+07 M⁻¹ s⁻¹
B6: xhCD8.1-hIL21 v27 (other)
chain: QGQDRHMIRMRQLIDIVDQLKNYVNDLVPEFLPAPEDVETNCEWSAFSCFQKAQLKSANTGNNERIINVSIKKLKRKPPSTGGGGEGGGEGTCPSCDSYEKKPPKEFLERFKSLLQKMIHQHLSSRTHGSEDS
VH: B4 VH
VL: B4 VL
notes: as for B4

fold difference in IL-21R affinity against wild type IL-21 [1]: ≤ 2 fold
Kd [2]: 0.094 nM
koff [2]: 0.00113 s⁻¹
kon [2]: 1.2e+07 M⁻¹ s⁻¹
B10: xhCD8.1-hIL21 v31 (other)
chain: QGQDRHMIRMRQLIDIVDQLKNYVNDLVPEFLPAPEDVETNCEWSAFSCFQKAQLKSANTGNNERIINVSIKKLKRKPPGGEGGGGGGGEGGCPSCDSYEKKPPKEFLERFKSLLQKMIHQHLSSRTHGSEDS
VH: B4 VH
VL: B4 VL
notes: as for B4

Kd [3]: 156 nM
B12: xhCD8.1-hIL21 v2.56 (other)
chain: not shown
VH: B4 VH
VL: B4 VL
notes: as for B4

fold difference in IL-21R affinity against wild type IL-21 [1]: ≤ 2 fold
Kd [2]: 0.093 nM
koff [2]: 0.00107 s⁻¹
kon [2]: 1.16e+07 M⁻¹ s⁻¹
B17: xhCD8.1-hIL21 v30 (other)
chain: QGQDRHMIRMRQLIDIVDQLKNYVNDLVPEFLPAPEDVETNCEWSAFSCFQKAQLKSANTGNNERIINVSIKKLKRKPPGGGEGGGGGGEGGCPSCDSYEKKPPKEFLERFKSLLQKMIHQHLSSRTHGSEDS
VH: B4 VH
VL: B4 VL
notes: as for B4

STAT3 activation in human whole blood (pSTAT3, flow cytometry) [5]: > 100 fold
B18: xhCD8.1-hIL21 v2.64 (other)
chain: QGQDRHMIRMRQFIDAADQLKNYVNDLVPEFLPAPEDVETNCEWSAFSCFQKAQLKSANTGNNERIINVSIKKMKRKPPSTNAGGGQGHELTCPSCDSYEKKPPKEFLERFKSLLQKMIHQHLSSRTHGSEDS
VH: B4 VH
VL: B4 VL
notes: as for B4

STAT3 activation in human whole blood (pSTAT3, flow cytometry) [5]: > 100 fold
B19: xhCD8.1-hIL21 v2.63 (other)
chain: B18 chain with F13L, A16R, A17I, M74I
VH: B4 VH
VL: B4 VL
notes: as for B4

Kd [3]: 66.9 nM
B21: xhCD8.1-hIL21 v2.38 (other)
chain: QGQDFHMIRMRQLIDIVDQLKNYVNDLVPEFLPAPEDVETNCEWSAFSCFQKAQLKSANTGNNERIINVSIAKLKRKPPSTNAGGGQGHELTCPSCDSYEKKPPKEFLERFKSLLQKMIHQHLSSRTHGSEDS
VH: B4 VH
VL: B4 VL
notes: as for B4

Kd [3]: 420 nM
B22: xhCD8.1-hIL21 v2.58 (other)
chain: not shown
VH: B4 VH
VL: B4 VL
notes: as for B4

fold difference in IL-21R affinity against wild type IL-21 [1]: ≤ 2 fold
Kd [2]: 0.106 nM
koff [2]: 0.00139 s⁻¹
kon [2]: 1.31e+07 M⁻¹ s⁻¹
B24: xhCD8.1-hIL21 v28 (other)
chain: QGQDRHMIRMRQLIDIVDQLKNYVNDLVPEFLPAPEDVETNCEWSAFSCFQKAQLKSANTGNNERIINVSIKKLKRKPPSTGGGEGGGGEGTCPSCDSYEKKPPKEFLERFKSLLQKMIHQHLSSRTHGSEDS
VH: B4 VH
VL: B4 VL
notes: as for B4

Kd [3]: 54.7 nM
B26: xhCD8.1-hIL21 v2.40 (other)
chain: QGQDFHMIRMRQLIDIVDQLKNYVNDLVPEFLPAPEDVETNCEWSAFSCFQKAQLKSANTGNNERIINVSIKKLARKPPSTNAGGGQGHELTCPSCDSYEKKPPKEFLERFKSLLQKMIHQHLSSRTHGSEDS
VH: B4 VH
VL: B4 VL
notes: as for B4

STAT3 activation in human whole blood (pSTAT3, flow cytometry) [5]: > 100 fold
B27: xhCD8.1-hIL21 v2.65 (other)
chain: B18 chain with F13R, A17I, M74I
VH: B4 VH
VL: B4 VL
notes: as for B4

Kd [3]: 614 nM
B28: xhCD8.1-hIL21 v2.39 (other)
chain: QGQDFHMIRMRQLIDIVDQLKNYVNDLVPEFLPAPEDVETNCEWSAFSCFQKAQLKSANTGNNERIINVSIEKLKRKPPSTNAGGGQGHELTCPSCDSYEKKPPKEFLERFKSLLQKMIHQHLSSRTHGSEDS
VH: B4 VH
VL: B4 VL
notes: as for B4

Kd [3]: 104 nM
B31: xhCD8.1-hIL21 v2.41 (other)
chain: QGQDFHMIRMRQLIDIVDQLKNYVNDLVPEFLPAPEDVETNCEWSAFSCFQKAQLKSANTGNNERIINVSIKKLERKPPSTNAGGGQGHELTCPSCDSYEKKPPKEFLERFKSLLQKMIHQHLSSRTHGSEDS
VH: B4 VH
VL: B4 VL
notes: as for B4

Kd [3]: 601 nM
B33: xhCD8.1-hIL21 v2.37 (other)
chain: not shown
VH: B4 VH
VL: B4 VL
notes: as for B4
